Results published in the supplement of paper PMC12042874.
± gives the uncertainty stated by the source.

Test: amyloid nucleation score (Sup35N fusion, yeast selection) (log enrichment); library NNK3; higher = more nucleation; inactive = no reads after selection
Procedure, shortened: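 DiMSum was used to calculate nucleation scores as log enrichment of output over input reads, centred on the mode score of non-aggregating sequences. Sequences with fewer than 100 input reads were not scored. Input and output came from Illumina sequencing of plasmid inserts in psi-negative yeast expressing peptides of 20 random codons fused to Sup35N, induced 24 hours with 100 μM copper sulfate and then grown 7 days at 30°C on medium lacking adenine and uracil.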

Row | Substance | amyloid nucleation score
1 | AGKSLLRVQYP | inactive
2 | CTLIAKHNQA | inactive
3 | MINCISNMVISIGSKRTYPS | 2.5 ± 0.068
4 | RSVLLKVHTWITKSCFSTGL | inactive
5 | QFGSWD | inactive
6 | NTHKQWVRTLRWVLVSYNCC | inactive
7 | LTRDVCFN | 0.312 ± 0.54
8 | VTCETSGADVVSTR | inactive
9 | ETHLDTLPVVYHLWLLHVLM | inactive
10 | KWPQLIWSGTYFKPFWSING | inactive
11 | NLMCW | 0.958 ± 0.21
12 | QVLFAYIYLSLVNVSQG | 1.03 ± 0.14
13 | MKFFVNLAYIFFRFFSLRLL | inactive
14 | QLCFGVMLRCSCCGKQVWEK | 1.84 ± 0.1
15 | CAISLVRLTVQSEEIRVDRN | inactive
16 | YTYQTLLADLNKGFMYSRRW | inactive
17 | SFRSPMDIVLLFVMCSVLAR | inactive
18 | GHVAHLINILYVNSTIPQTG | inactive
19 | RVRIKTWYRMMGYMLCWCEL | inactive
20 | VVRSRTFTSTSYTF | 0.777 ± 0.23
21 | SQACNHLVADRSTIGELSRM | inactive
22 | VQLFSQNALPMFNSWKYYDH | inactive
23 | SMFGLRLIDG | inactive
24 | WYVCRSGVCGHALIALATRR | -0.483 ± 0.61

Row | Substance | amyloid nucleation score
25 | SWMSI | inactive
26 | TRYGNW | inactive
27 | KRNSYTMFLA | inactive
28 | WCFYKSLIACGHIVGIEPDW | 0.848 ± 0.15
29 | QLRASA | inactive
30 | HHIFVFQGLASLNLHTDWML | 1.62 ± 0.1
31 | ANWIVGC | inactive
32 | ISDTYSWCRYLVIGNYAQLG | 0.463 ± 0.23
33 | IDVYRFRKGA | inactive
34 | GELPLRVKVKSFHTDTSLRK | 0.614 ± 0.29
35 | TYSSGFAPGWN | inactive
36 | QHKKKIAF | inactive
37 | EYSLMVNSTIDYFGDSNICE | inactive
38 | QDNVKVVGAVGFYDILNGVE | inactive
39 | FVVGHENNFLKFANSLSRL | inactive
40 | RAYFGCFQGFILLFSYLMC | inactive
41 | QPVTRLFFISGSRGDLVEKH | inactive
42 | IDRVMCNHDSIRQQLSLLSV | inactive
43 | MESDCQRDHNFIRIKIKIGE | 1.65 ± 0.09
44 | LFVWRSMNRFFQVYVLWSAE | inactive
45 | RMVDFADF | inactive
46 | FTRWIWFIVITSASCFKSFH | inactive
47 | YLRGVFLRYGG | inactive
48 | QCEAGSGIIAVLHY | inactive

Row | Substance | amyloid nucleation score
49 | PFSSFWVTRTLIALWYSLRT | inactive
50 | LNLMD | inactive
51 | FYSAISVAAYIEMTWESVDM | inactive
52 | PLESSWSK | inactive
53 | YSRSTWVRIWFLLVSLLPVG | inactive
54 | VFCAGLFDTMCCSDGASVEV | 1.16 ± 0.095
55 | RVYKSV | inactive
56 | TFLWY | inactive
57 | VSFSSCTWSMQEERMLVSWG | inactive
58 | RIFWHQCGYGSIRLWGQLDR | -0.531 ± 0.83
59 | DGKFRSNWSYGVLWMLVFLY | inactive
60 | NECLVDTA | inactive
61 | YRPRGERLRFMYCY | inactive
62 | DKFLFLCMG | inactive
63 | RAHIPWKRCFV | -1.06 ± 1.9
64 | SVLLISVEYVAYEFLSHSVR | 2.05 ± 0.097
65 | SSFYCRAFGDRNVWKWQWCL | inactive
66 | IHLIVWGPSSTLVMVFMEVM | inactive
67 | LSLVCNCRSTCNCPGLSL | inactive
68 | IDIESL | inactive
69 | RGGRYDFMCDTCSLIVFASV | -0.645 ± 1.1
70 | FMIFDWVTYIKVTVKCWW | inactive
71 | HYINYINLQMVYFDVGQMYC | 2.96 ± 0.062
72 | CVDQT | inactive

Row | Substance | amyloid nucleation score
73 | VLTVYDCGLEQPW | inactive
74 | FVCLKNFIFNRYKADGD | 1.17 ± 0.19
75 | RAVTSWYVVRWFIRYNTSNA | inactive
76 | WSTESWTYPGIRMCFWGGEG | -0.755 ± 1.4
77 | SKLRYRCSNSHQVIGTPCLD | inactive
78 | YCYFFLGLCTYKSQYNGLRL | inactive
79 | TLNGCR | inactive
80 | TYQST | inactive
81 | KYNTCSEV | inactive
82 | MRTNTPIFLVLGKIS | inactive
83 | AFTGTDSKF | inactive
84 | RYLPRTSFPTIL | inactive
85 | DCHLPKIKYFAITYFCFFRR | inactive
86 | RQILSFWP | inactive
87 | SLKMK | inactive
88 | YRGIKFTYKPGLLGQFHRED | inactive
89 | STDWDFHMRTFPGHVTKCWK | inactive
90 | YRNELCYIQRRYLPYGRWTA | inactive
91 | DILGVCLSMNYWVI | inactive
92 | YRAECNNFLMPLCCTEFFQI | 2.2 ± 0.087
93 | AKIVECM | inactive
94 | IPGAVISEYYKSYRSSTIPP | inactive
95 | NSYQY | inactive
96 | KYCHIYFNICLWLAYSLSFL | inactive

Row | Substance | amyloid nucleation score
97 | SLMNHLSGTKVMLGRLRYSN | inactive
98 | SIRLGNNSWPVATSVKWHSV | inactive
99 | YFVFKALRSIPNGLMLSLRG | inactive
100 | FDVIS | inactive
101 | MYFSFLW | 0.18 ± 0.47
102 | LTELSETVPVVKRWKCLDYF | -0.807 ± 1.9
103 | DSLLDGYSHWAKWGSTRCVR | inactive
104 | KYVYFMSVFCEVCSRAHRVV | 1.24 ± 0.1
105 | AGTSKMNIYSMHAV | inactive
106 | FNNFSYCHTDARVWVMATVM | inactive
107 | KGGCW | inactive
108 | RKLGPSHQWNHRWGFSVRSC | inactive
109 | LFVLIDYNRYP | inactive
110 | YMRLGRWWSFKAVDGRRLKW | -0.373 ± 1.3
111 | YMLHGTRRLRRETYGGAGRR | inactive
112 | VPNEVFISYLV | inactive
113 | LNRANNGVVYQMGVRDFQSS | inactive
114 | FYSFFILSIGSSIPCLRSHM | inactive
115 | RRVMIALRYRRYGEFTEAYP | inactive
116 | ELGGFFNEAGVTNHPIMS | inactive
117 | SYNVFPIAEDKNHWNTFC | inactive
118 | QWIVDFCNCTWEVVRVLRFC | inactive
119 | LREHWEELVLGFWFPKVCCF | inactive
120 | CNPLFTYNKPSVDKSV | inactive

Row | Substance | amyloid nucleation score
121 | LQSCSCAGLFPDL | inactive
122 | TTSLSIGGLIFRLVL | inactive
123 | VFQRR | inactive
124 | SAGWMSTKVSVQLTNYPGLA | 1.33 ± 0.16
125 | VCSDGLNWGHGVRMLWY | inactive
126 | RRVFHQAFSGWSDLCIQRSG | inactive
127 | FLSYTPRATGYHFFRLSIFC | inactive
128 | VFIGSVGFSDLWKLSVAYNY | inactive
129 | LFYYSRTVESYLSNVCLVIR | inactive
130 | IFLKHIPRHSSSKTMTANCP | inactive
131 | YIVSSSD | inactive
132 | YVFDHDIGQ | inactive
133 | ERPSLVEW | inactive
134 | LFLFQFRYGSWGFRGYMVGR | 0.837 ± 0.27
135 | QLWNWVFYYISNILGKGMHL | inactive
136 | FFPDGDQTYMA | inactive
137 | ITISIYRIGRRFFDEYFNSF | inactive
138 | LTVLFTVCWVGTRAYGLIGG | inactive
139 | TRMSVQLISFAKLTFFSACM | inactive
140 | SRRVN | inactive
141 | CCNDWR | inactive
142 | CMLCKPWSSQVNSY | inactive
143 | LAVTFVHRLCWILLFWD | inactive
144 | FGGAYFVTPGAYFVWYSFLG | 0.222 ± 0.31

Row | Substance | amyloid nucleation score
145 | MHLVYQDILSYIAWSRVPLR | inactive
146 | MRGFFCRIH | inactive
147 | LTFLVRDCCTCSICNDGPSR | 3.08 ± 0.079
148 | ATTNKLIYSHMVGKMLTSSF | inactive
149 | CWRVCGARYLWA | inactive
150 | DFISERHYHRPAGPA | inactive
151 | MKTSNYMVRQCAGIPASTNR | inactive
152 | FFCKRFYSKFPDQWLAHSVE | inactive
153 | RKIHLLGHWLFRSMYRRRFW | inactive
154 | PLSSSLGWVCL | inactive
155 | KVVVTIRTVCRKKVDVICID | 0.071 ± 0.72
156 | YVSPKSIVLIPCYTMRKTRY | inactive
157 | SRLIRKMKCVMGSTSSTIGY | inactive
158 | KYFRNLTVRKTKWE | inactive
159 | FVRPFGRVFIFQKDFSIKVC | inactive
160 | SLSEEYDTLPATWTAQVCKR | inactive
161 | HEGPKKEGLLAYVKVKRLRR | inactive
162 | ISCGGLNQ | inactive
